The values below come from patent US20150104808A1 (Janssen / Centocor, published 2015).

Bounds are passed on as bounds.

Assay [1] addresses T1, EGFR (epidermal growth factor receptor) on cells (human, UniProt P00533 25-1210). Kind of assay: cell-based or functional assay.
Assay [2] deals with c-Met (hepatocyte growth factor receptor) on cells (human, UniProt P08581 25-1390). Kind of assay: cell-based or functional assay.
Assay [3] deals with Recombinant human c-Met Fc chimera (human) (UniProt P08581). Kind of assay: HGF competition on coated c-Met Fc chimera, competitor biotinylated HGF.
Assay [4] concerns the target T1, EGFR (epidermal growth factor receptor) …. The assay can be described thus: A431 cell binding, anti-His-Alexa488 fluorescence. How it is done: A431 cells were plated at 5,000/well in opaque black 96-well plates and allowed to attach overnight at 37° C., in a humidified 5% CO₂ atmosphere. […] Supernatant was removed and cells were washed 3 times with 150 μL/well of FACS stain buffer. Cells were incubated with 50 μL/well of anti-penta His-Alexa488 antibody conjugate (Qiagen) diluted 1:100 in FACS stain buffer for 20 minutes at room temperature. Cells were washed 3 times with 150 μL/well of FACS stain buffer, after which wells were filled with 100 μL of FACS stain buffer and read for fluorescence at 488 nm using an Acumen eX3 reader. Data were plotted as raw fluorescence signal against the logarithm of the FN3 domain molar concentration and fitted to a sigmoidal dose-response curve with variable slope using GraphPad Prism 4 (GraphPad Software) to calculate EC₅₀ values.

B1: ECB147v3-PEG24 (designed binder)
chain: LPAPKNLVVSEVTEDSARLSWDDPWAFYESFLIQYQESEKVGEAIVLTVPGSERSYDLTGLCPGTEYTVSIYGVHNVYKDTNMRGLPLSAIFTTAPCPAPAPAPLPAPKNLVVSRVTEDSARLSWTAPDAAFDSFWIRYFEFLGSGEAIVLTVPGSERSYDLTGLCPGTEYVVNIMSVKGGSISPPLSAIFTTAPCPAPAPAPLAEAKVLANRELDKYGVSDYYKNLINNAKTVEGVKALLDEILAALP
modifications: PEG24-maleimide on the engineered cysteines
Take B1: the “IC50, inhibition of EGF-stimulated EGFR phosphorylation (Tyr1173) in NCI-H292” value (“IC50, inhibition … (Tyr1173) in NCI-H292” below) in assay [1] came to 1.6 nM. The “IC50, inhibition of HGF-stimulated c-Met phosphorylation (Tyr1349) in NCI-H292” value (from here on “IC50, inhibition … (Tyr1349) in NCI-H292”) in assay [2] stood at 0.5 nM.

B2: ECB147v7-PEG24 (designed binder)
chain: LPAPKNLVVSEVTEDSARLSWDDPWAFYESFLIQYQESEKVGEAIVLTVPGSERSYDLTGLKPGTEYTVSIYGVHNVYKDTNMRGLPLSAIFTTAPCPAPAPAPLPAPKNLVVSRVTEDSARLSWTAPDAAFDSFWIRYFEFLGSGEAIVLTVPGSERSYDLTGLKPGTEYVVNIMSVKGGSISPPLSAIFTTAPCPAPAPAPLAEAKVLANRELDKYGVSDYYKNLINNAKTVEGVKALLDEILAALP
modifications: PEG24-maleimide on the engineered cysteines
Turning to B2, the “IC50, inhibition … (Tyr1173) in NCI-H292” value in assay [1] was 1.4 nM. Besides, the “IC50, inhibition … (Tyr1349) in NCI-H292” value in assay [2] was 0.5 nM.

B3: ECB147v6-PEG24 (designed binder)
chain: LPAPKNLVVSEVTEDSARLSWDDPWAFYESFLIQYQESEKVGEAIVLTVPGSERSYDLTGLCPGTEYTVSIYGVHNVYKDTNMRGLPLSAIFTTAPAPAPAPAPLPAPKNLVVSRVTEDSARLSWTAPDAAFDSFWIRYFEFLGSGEAIVLTVPGSERSYDLTGLKPGTEYVVNIMSVKGGSISPPLSAIFTTAPAPAPAPAPLAEAKVLANRELDKYGVSDYYKNLINNAKTVEGVKALLDEILAALP
modifications: PEG24-maleimide on the engineered cysteine
For the molecule B3, the “IC50, inhibition … (Tyr1173) in NCI-H292” value in assay [1] worked out at 1.4 nM. Further, the “IC50, inhibition … (Tyr1349) in NCI-H292” value in assay [2] was determined as 0.4 nM.

B4: ECB147v5-PEG24 (designed binder)
chain: LPAPKNLVVSEVTEDSARLSWDDPWAFYESFLIQYQESEKVGEAIVLTVPGSERSYDLTGLCPGTEYTVSIYGVHNVYKDTNMRGLPLSAIFTTAPAPAPAPAPLPAPKNLVVSRVTEDSARLSWTAPDAAFDSFWIRYFEFLGSGEAIVLTVPGSERSYDLTGLCPGTEYVVNIMSVKGGSISPPLSAIFTTAPAPAPAPAPLAEAKVLANRELDKYGVSDYYKNLINNAKTVEGVKALLDEILAALP
modifications: PEG24-maleimide on the engineered cysteines
Consider B4, for which the “IC50, inhibition … (Tyr1173) in NCI-H292” value in assay [1] was determined as 0.9 nM. Besides, the “IC50, inhibition … (Tyr1349) in NCI-H292” value in assay [2] worked out at 0.4 nM.

B5: P114AR5P74-A5 (designed binder, not shown: small tags and cut ends)
chain: LPAPKNLVVSRVTEDSARLSWTAPDAAFDSFWIRYDEVVVGGEAIVLTVPGSERSYDLTGLKPGTEYYVNILGVKGGSISVPLSAIFTT
In general, IC50 refers to the concentration that inhibits the measured activity by half. Take B5: in assay [3], the IC50 stood at 5.2 nM.

B6: P114AR7P94-A3 (designed binder, not shown: small tags and cut ends)
chain: LPAPKNLVVSRVTEDSARLSWTAPDAAFDSFWIRYFEFLGSGEAIVLTVPGSERSYDLTGLKPGTEYVVNIMGVKGGKISPPLSAIFTT
For B6, the IC50 in assay [3] is 0.2 nM.

B7: P114AR7P92-G8 (designed binder, not shown: small tags and cut ends)
chain: LPAPKNLVVSRVTEDSARLSWTAPDAAFDSFVIRYFEFLGSGEAIVLTVPGSERSYDLTGLKPGTEYVVQILGVKGGYISIPLSAIFTT
Regarding B7, the half-maximal inhibitory concentration (IC50) in assay [3] stood at 1.6 nM.

B8: P114AR7P94-E5 (designed binder, not shown: small tags and cut ends)
chain: LPAPKNLVVSRVTEDSARLSWTAPDAAFDSFWIRYFEFLGSGEAIVLTVPGSERSYDLTGLKPGTEYAVNIMGVKGGRVSVPLSAIFTT
Turning to B8, the IC50 in assay [3] was determined as 0.7 nM.

B9: P114AR7P92-F6 (designed binder, not shown: small tags and cut ends)
chain: LPAPKNLVVSRVTEDSARLSWTAPDAAFDSFWIRYFEFLGSGEAIVLTVPGSERSYDLTGLKPGTEYVVNILGVKGGGLSVPLSAIFTT
B9: in assay [3], the IC50 stood at 2.2 nM.

B10: P114AR7P95-F10 (designed binder, not shown: small tags and cut ends)
chain: LPAPKNLVVSRVTEDSARLSWTAPDAAFDSFWIRYFEFTTAGEAIVLTVPGSERSYDLTGLKPGTEYVVNIMGVKGGSISPPLSAIFTT
For the molecule B10, in assay [3], the IC50 was 1.4 nM.

B11: P114AR7P93-H9 (designed binder, not shown: small tags and cut ends)
chain: LPAPKNLVVSRVTEDSARLSWTAPDAAFDSFWIRYFEFLGSGEAIVLTVPGSERSYDLTGLKPGTEYVVQIIGVKGGHISLPLSAIFTT
As for B11, the half-maximal inhibitory concentration (IC50) in assay [3] is 2.9 nM.

B12: P114AR5P75-E9 (designed binder, not shown: small tags and cut ends)
chain: LPAPKNLVVSRVTEDSARLSWTAPDAAFDSFFIRYDEFLRSGEAIVLTVPGSERSYDLTGLKPGTEYWVTILGVKGGLVSTPLSAIFTT
B12: the IC50 in assay [3] is 51.9 nM.

B13: P114AR7P93-G8 (designed binder, not shown: small tags and cut ends)
chain: LPAPKNLVVSRVTEDSARLSWTAPDAAFDSFWIRYFEFLGSGEAIVLTVPGSERSYDLTDLKPGTEYGVTINGVKGGRVSTPLSAIFTT
With B13, the IC50 in assay [3] worked out at 1 nM.

B14: P54CR4-31 (designed binder, not shown: small tags and cut ends)
chain: LPAPKNLVVSEVTEDSLRLSWTAPDAAFDSFLIQYQESEKVGEAINLTVPGSERSYDLTGLKPGTEYTVSIYGVLGSYVFEHDVMLPLSAEFTT
The term EC50 denotes the concentration giving half of the maximal effect. Low values mean a more potent agent, high ones a less potent agent. In assay [4], B14 showed a concentration giving a half-maximal response (EC50) greater than 20000 nM.

B15: ECB38 (designed binder)
chain: MLPAPKNLVVSEVTEDSARLSWDDPWAFYESFLIQYQESEKVGEAIVLTVPGSERSYDLTGLKPGTEYTVSIYGVHNVYKDTNMRGLPLSAIFTTAPAPAPAPAPLPAPKNLVVSRVTEDSARLSWTAPDAAFDSFWIRYFEFLGSGEAIVLTVPGSERSYDLTGLKPGTEYVVNIMGVKGGKISPPLSAIFTTAPAPAPAPAPLAEAKVLANRELDKYGVSDYYKNLINNAKTVEGVKALLDEILAALP
As to B15, the “IC50, inhibition … (Tyr1173) in NCI-H292” value in assay [1] came to 2.3 nM. In addition, the “IC50, inhibition … (Tyr1349) in NCI-H292” value in assay [2] was 1.3 nM.
